Reference: IntAct's records for PubMed 22575647

B1: Nuclear receptor subfamily 0 group B member 2 (Homo sapiens), Q15466 (parent)
chain: MSTSQPGACPCQGAASRPAILYALLSSSLKAVPRPRSRCLCRQHRPVQLCAPHRTCREALDVLAKTVAFLRNLPSFWQLPPQDQRRLLQGCWGPLFLLGLAQDAVTFEVAEAPVPSILKKILLEEPSSSGGSGQLPDRPQPSLAAVQWLQCCLESFWSLELSPKEYACLKGTILFNPDVPGLQAASHIGHLQQEAHWVLCEVLEPWCPAAQGRLTRVLLTASTLKSIPTSLLGDLFFRPIIGDVDIAGLLGDMLLLR

Variants of: B1
Settings: with mdm2_human MDM2, Q00987
Chain of mdm2_human MDM2, Q00987 (Q00987 whole entry, looked up): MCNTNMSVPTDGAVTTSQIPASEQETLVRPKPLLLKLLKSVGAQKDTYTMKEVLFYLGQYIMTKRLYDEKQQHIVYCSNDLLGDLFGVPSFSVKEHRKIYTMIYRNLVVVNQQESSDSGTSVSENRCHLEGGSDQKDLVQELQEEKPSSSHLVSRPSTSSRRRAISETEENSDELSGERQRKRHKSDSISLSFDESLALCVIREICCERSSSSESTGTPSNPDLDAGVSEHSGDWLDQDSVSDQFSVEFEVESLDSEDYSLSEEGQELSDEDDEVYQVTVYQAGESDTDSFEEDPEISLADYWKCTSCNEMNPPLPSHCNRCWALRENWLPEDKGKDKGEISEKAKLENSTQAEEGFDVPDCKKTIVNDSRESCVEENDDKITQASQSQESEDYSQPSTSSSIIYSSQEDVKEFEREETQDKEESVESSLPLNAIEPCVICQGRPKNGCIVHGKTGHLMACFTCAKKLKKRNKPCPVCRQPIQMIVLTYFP

Q: Which “effect of a mutation on the interaction” value does the source give for MSTSQPGACPCQGAASRPAILYALLSSSLKAVPRPRSRCLCRQHRPVQLCAPHRTCREALDVLAKTVAFLRNLPSFWQLPPQDQRRLLQGCWGPLFLLGLAQDAVTFEVAEAPVPSILKKILLEEPSSSGGSGQLPDRPQPSLAAVQWLQCCLESFWSLELSPKEYACLNGTILFNPDVPGLQAASHIGHLQQEAHWVLCEVLEPWCPAAQGRLTRVLLTASTLKSIPTSLLGDLFFRPIIGDVDIAGLLGDMLLLR [K170N] here?
A: Its value is “increasing interaction”.

Variants of: B1
Settings: with mdm2_human MDM2, Q00987
Remark: another data set of the same source

Q: MSTSQPGACPCQGAASRPAILYALLSSSLKAVPRPRSRCLCRQHRPVQLCAPHRTCREALDVLAKTVAFLRNLPSFWQLPPQDQRRLLQGCWGPLFLLGLAQDAVTFEVAEAPVPSILKKILLEEPSSSGGSGQLPDRPQPSLAAVQWLQCCLESFWSLELSPKEYACLRGTILFNPDVPGLQAASHIGHLQQEAHWVLCEVLEPWCPAAQGRLTRVLLTASTLKSIPTSLLGDLFFRPIIGDVDIAGLLGDMLLLR [K170R] was tested. Which “effect of a mutation on the interaction” value did it give?
A: Its value is “disrupting interaction”.
